As a reminder, the EC50 is the concentration at which the effect is half-maximal. As a reminder, the IC50 is the concentration that inhibits the measured activity by half.

Holding throughout (conditions): remark: other sources report otherwise
Assay [1] concerns the target T1, SARS-CoV-2 Spike ectodomain (tri-S), Wuhan (SARS-CoV-2), P0DTC2. Nature of the assay: tri-S/ACE2 blocking ELISA. (In general: In an ELISA, binding on a coated surface is turned into a signal by an enzyme label.)
The target of assay [2] is SARS-CoV-2 RBD (B.1.351) domain (SARS-CoV-2). Kind of assay: ELISA. More on the design: unit not given beside the values.
Assay [3] has as its target SARS-CoV-2 RBD (P.1) domain (SARS-CoV-2). Kind of assay: ELISA. More on the design: unit not given beside the values.
Assay [4] addresses T1, SARS-CoV-2 Spike ectodomain (tri-S), …. Kind of assay: ELISA. Details: unit not given beside the values.
Assay [5] addresses SARS-CoV-2 RBD (B.1.1.7) domain (SARS-CoV-2). Kind of assay: ELISA. More on the design: unit not given beside the values.
For assay [6], the target named is SARS-CoV-2 RBD (B.1.351) domain (SARS-CoV-2). Nature of the assay: RBD/ACE2 blocking ELISA.
Assay [7] deals with SARS-CoV-2 RBD (P.1) domain (SARS-CoV-2). Kind of assay: RBD/ACE2 blocking ELISA.
Assay [8] has as its target SARS-CoV-2 RBD (B.1.1.7) domain (SARS-CoV-2). Kind of assay: RBD/ACE2 blocking ELISA.
Assay [9] deals with SARS-CoV-2 RBD (B.1.351) domain (SARS-CoV-2). Kind of assay: ELISA; unit from paragraph 452, none printed in the heatmap.
The target of assay [10] is T1, SARS-CoV-2 Spike ectodomain (tri-S), …. Nature of the assay: tri-S-ACE2 competition ELISA; unit from legend paragraph 348.
The target of assay [11] is SARS-CoV-2 RBD (B.1.351) domain (SARS-CoV-2). Kind of assay: ELISA.
Assay [12] deals with SARS-CoV-2 RBD (P.1) domain (SARS-CoV-2). Kind of assay: ELISA.
Assay [13] deals with T1, SARS-CoV-2 Spike ectodomain (tri-S), …. Nature of the assay: ELISA.
The target in assay [14] is SARS-CoV-2 RBD (B.1.1.7) domain (SARS-CoV-2). Kind of assay: ELISA.

B1: ADG-2 (antibody, V domains shown)
VH: EVQLVESGGGLVKPGGSLRLSCAASGFTFSSYYMNWVRQAPGKGLEWVSSISEDGYSTYYPDSLKGRFTISRDSAKNSLYLQMNSLRADDTAVYYCARDFSGHTAWAGTGFEYWGQGTLVTVSS
VL: QSVLTQPPSVSGAPGQRITISCTGSSSNIGAGYDVHWYQQLPGTAPKLLIYGSSSRNSGVPDRFSGSKSGTSASLAITGLQAEDEADYYCQSYDSSLSVLYTFGTGTKVTVL
For B1, the % binding inhibition in [1] came to 96%; in [6] it was 95%; in assay [7], 89%; in [8] it was 92%. Further, the AUC in assay [2], in [3], in assay [4] and in assay [5] was 3 in each case.

B2: Adintrevimab (antibody, V domains shown)
VH: B1 VH
VL: B1 VL
In assay [9], B2 gave a concentration giving a half-maximal response (EC50) of 7 ng/mL. The IC50 in assay [10] was determined as 0.2 µg/mL. Moreover, the OD405nm in assay [11] stood at 3.4; in [12], 3.4; in assay [13] it was 3; in assay [14], 3.4.

B3: Cilgavimab (antibody, V domains shown)
VH: EVQLVESGGGLVKPGGSLRLSCAASGFTFRDVWMSWVRQAPGKGLEWVGRIKSKIDGGTTDYAAPVKGRFTISRDDSKNTLYLQMNSLKTEDTAVYYCTTAGSYYYDTVGPGLPEGKFDYWGQGTLVTVSS
VL: not shown
In assay [9], B3 yielded an EC50 of 7 ng/mL. Moreover, the OD405nm in assay [11] was determined as 3.3.
